The experiment addresses T1, 3× Flag-tagged TOX4 (UniProt O94842 1-621).
T1 construct: TOX4, cDNA cloned into pFASTBAC.1; Also used as the parent (on) of the region row from the co-IP with TOX4 fragments, whose own constructs are not described; also called 3× Flag-TOX4; source: High Five cells infected with baculovirus, purified (anti-Flag M2 magnetic beads, eluted with 3× Flag peptide); also purified from High Five cells as the TOX4-PP1α complex
T1 sequence (looked up): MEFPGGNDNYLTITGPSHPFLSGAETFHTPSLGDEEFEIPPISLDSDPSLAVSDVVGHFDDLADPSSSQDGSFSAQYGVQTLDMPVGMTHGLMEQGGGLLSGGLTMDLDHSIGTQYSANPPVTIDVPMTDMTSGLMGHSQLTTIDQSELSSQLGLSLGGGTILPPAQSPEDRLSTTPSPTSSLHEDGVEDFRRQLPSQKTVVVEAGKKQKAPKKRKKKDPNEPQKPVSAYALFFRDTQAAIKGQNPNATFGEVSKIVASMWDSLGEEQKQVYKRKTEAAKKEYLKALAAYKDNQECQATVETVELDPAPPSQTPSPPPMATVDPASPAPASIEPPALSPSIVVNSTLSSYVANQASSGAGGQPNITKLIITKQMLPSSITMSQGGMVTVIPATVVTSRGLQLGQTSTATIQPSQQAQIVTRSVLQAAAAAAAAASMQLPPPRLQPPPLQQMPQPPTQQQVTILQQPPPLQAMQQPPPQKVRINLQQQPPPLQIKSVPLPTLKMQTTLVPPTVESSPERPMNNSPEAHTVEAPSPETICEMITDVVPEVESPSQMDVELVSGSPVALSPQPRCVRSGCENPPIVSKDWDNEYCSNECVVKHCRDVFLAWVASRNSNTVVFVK
In words: co-IP; in vitro binding assay of individually purified TOX4 and PP1α, β or γ; PP1 co-immunoprecipitated with TOX4; Western blot, quantified by ImageJ. The following applies: both partners purified. In general terms: A western blot detects proteins with antibodies after separation by electrophoresis.

B1: His-tagged PP1β (enzyme, UniProt P62140 1-327, looked up)
chain: MADGELNVDSLITRLLEVRGCRPGKIVQMTEAEVRGLCIKSREIFLSQPILLELEAPLKICGDIHGQYTDLLRLFEYGGFPPEANYLFLGDYVDRGKQSLETICLLLAYKIKYPENFFLLRGNHECASINRIYGFYDECKRRFNIKLWKTFTDCFNCLPIAAIVDEKIFCCHGGLSPDLQSMEQIRRIMRPTDVPDTGLLCDLLWSDPDKDVQGWGENDRGVSFTFGADVVSKFLNRHDLDLICRAHQVVEDGYEFFAKRQLVTLFSAPNYCGEFDNAGGMMSVDETLMCSFQILKPSEKKAKYQYGGLNSGRPVTPPRTANPPKKR
notes: PP1β, catalytic subunit of protein phosphatase 1 beta; cDNA cloned into pFASTBAC.1; also called His-PP1β; source: High Five cells infected with baculovirus, purified (HisPur Ni-NTA magnetic beads, imidazole elution)
As to B1, the binding result is “binds”.

These data come from PMC8975821, “TOX4 facilitates promoter-proximal pausing and C-terminal domain dephosphorylation of RNA polymerase II in human cells” (Communications Biology, 2022).
